Results from the Human Domainome abundance scans (Beltran et al. 2025).

B1: Myocardin-related transcription factor A, residues 341 to 383; numbered along this chain, Q969V6 (parent)
chain: GALPANLDDMKVAELKQELKLRSLPVSGTKTELIERLRAYQDQ
B2: Tumor protein 63, residues 545 to 610; numbered along this chain, Q9H3D4 (parent)
chain: TDCSIVSFLARLGCSSCLDYFTTQGLTTIYQIEHYSMDDLASLKIPEQFRHAIWKGILDHRQLHEF

Variants of: B1
Assay: abundance fitness (aPCA) (normalised: wild type 0, dead -1); higher = more abundant; growth selection in yeast, the domain comes from the species named
Settings: Homo sapiens

Abundance fitness, by site and new letter:
L3: Y 0.502, H 0.426, S -0.031, R -0.021, F 0.243, D 0.512, M -0.022, N 0.128, W -0.122, V 0.073, K -0.171, E -0.019
D9: T 0.243, V 0.153, S 0.159, K 0.404, E 0.273, Q 0.085, W -0.139, G 0.13, A 0.203, N 0, M 0.019, C 0.014, P -0.416, R 0.135, L -0.026
V12: C -0.212, D -0.363, A -0.029, S -0.336, M 0.199, I -0.177, W -0.374, F -0.037, R -0.177, L 0.164, G -0.218, N -0.647, Y -0.585, Q -0.552, E 0.098
G1: N -0.205, R -0.165, C -0.605, D -0.587, A -0.918, S -0.438, V -0.384, E -0.303, Q -0.306
N6: V -0.127, D -0.189, K 0.157, L -0.124, E -0.007, P -1.5, A -0.229, H -0.661, W -0.76, R -0.048, Q -0.212, M 0.135, F -0.431, G 0.044

Variants of: B2
Assay: as above
Settings: Homo sapiens

Abundance fitness, by site and new letter:
H60: S -0.077, R 0.012, V 0, Q -0.02, P -0.38, T -0.027, N -0.015, M -0.011, Y -0.014, W -0.017
R61: M -0.077, W -0.105, N -0.05, I -0.062, F -0.037, V -0.067, H -0.1, T -0.055, C -0.073, E -0.047, K 0.058, D -0.121, S -0.039, P -0.022, A -0.033
E65: P -0.082, D 0.081, A 0.002, K 0.002, V -0.093, T -0.049, C -0.023, H -0.072, Q 0.113, N -0.027, L -0.08, Y -0.184, M -0.089, R -0.065, I -0.099
Q62: N -0.056, Y -0.083, R 0.006, G -0.023, W -0.144, A -0.011, D -0.03, E 0.013, T -0.023, I -0.151, K -0.021, L -0.039, V -0.051, H -0.011, S -0.025
L63: S 0.005, F -0.105, P -0.008, M 0.025, N -0.04, C -0.01, G -0.016, R -0.045, I -0.034, V -0.043, E 0.009, D 0.004, Q -0.016, T -0.006, W -0.054, Y -0.029, K -0.004, A 0.029
F66: G -0.214, S -0.019, M 0.028, C 0.033, Y 0.044, D -0.119, R -0.013, A 0.05, V 0.071, L -0.022, P 0.086, H 0.027, I -0.011, E -0.678
H64: D -0.028, R -0.019, I -0.061, S 0.016, A -0.002, W -0.075, P -0.02, V -0.019, T 0.011, G -0.035, N -0.007, F -0.064, E 0.034, Q 0.029, K -0.018
